These results are taken from patent publication US20250197482A1 (UNITED STATES OF AMERICA AS REPRESENTED BY THE SECRETARY …, published 2025).

Assay in all cases: cell-based or functional assay
One test has as its target CAP256 wk34c80 (HIV-1).
Test [1] addresses T1, HIV-1 Env of strain WITO.33 (Env-pseudotyped virus) (HIV-1).
Test [2] deals with HIV-1 Env of strain SC422.8 (Env-pseudotyped virus) (HIV-1).
Test [3] deals with T1, HIV-1 Env of strain WITO.33 …. The source holds these as a separate data set.

B1: CAP256V2LS-J3-3 (bispecific antibody)
heavy: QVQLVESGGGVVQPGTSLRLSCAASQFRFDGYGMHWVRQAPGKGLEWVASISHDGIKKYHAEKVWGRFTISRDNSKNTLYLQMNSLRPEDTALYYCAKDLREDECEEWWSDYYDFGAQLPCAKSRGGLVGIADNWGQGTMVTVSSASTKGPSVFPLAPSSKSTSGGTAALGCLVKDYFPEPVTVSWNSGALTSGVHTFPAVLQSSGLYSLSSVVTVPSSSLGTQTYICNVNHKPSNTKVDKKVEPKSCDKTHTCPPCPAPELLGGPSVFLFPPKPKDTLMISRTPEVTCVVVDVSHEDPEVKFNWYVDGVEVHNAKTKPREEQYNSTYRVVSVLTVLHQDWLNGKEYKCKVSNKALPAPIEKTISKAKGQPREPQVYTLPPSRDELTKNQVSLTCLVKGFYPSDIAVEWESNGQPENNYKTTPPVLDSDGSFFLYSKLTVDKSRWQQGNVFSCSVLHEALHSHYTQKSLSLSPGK
light: EVQLVESGGGLVQAGGFLRLSCELRGSIFNQYAMAWFRQAPGKEREFVAGMGAVPHYGEFVKGRFTISRDNAKSTVYLQMSSLKPEDTAIYFCARSKSTYISYNSNGYDYWGRGTQVTVSSGGSGGGGSGGGGSGGQSVLTQPPSVSAAPGQKVTISCSGNTSNIGNNFVSWYQQRPGRAPQLLIYETDKRPSGIPDRFSASKSGTSGTLAITGLQTGDEADYYCATWAASLSSARVFGTGTQVIVLGQPKVNPTVTLFPPSSEELQANKATLVCLISDFYPGAVTVAWKADSSPVKAGVETTTPSKQSNNKYAASSYLSLTPEQWKSHRSYSCQVTHEGSTVEKTVAPTECS
Consider B1, for which the “% neutralization, single point, Env-pseudotyped virus on TZM-bl” value (“% neutralization, single point” below) stood at 100% in the test with CAP256 wk34c80 and 89% in test [1]. Also, the “neutralization potency, fold better than that of J3” value in test [2] was 3 fold; in test [3] it was about 10 fold.

B2: CAP256V2LS-10E8-3 (bispecific antibody)
heavy chain: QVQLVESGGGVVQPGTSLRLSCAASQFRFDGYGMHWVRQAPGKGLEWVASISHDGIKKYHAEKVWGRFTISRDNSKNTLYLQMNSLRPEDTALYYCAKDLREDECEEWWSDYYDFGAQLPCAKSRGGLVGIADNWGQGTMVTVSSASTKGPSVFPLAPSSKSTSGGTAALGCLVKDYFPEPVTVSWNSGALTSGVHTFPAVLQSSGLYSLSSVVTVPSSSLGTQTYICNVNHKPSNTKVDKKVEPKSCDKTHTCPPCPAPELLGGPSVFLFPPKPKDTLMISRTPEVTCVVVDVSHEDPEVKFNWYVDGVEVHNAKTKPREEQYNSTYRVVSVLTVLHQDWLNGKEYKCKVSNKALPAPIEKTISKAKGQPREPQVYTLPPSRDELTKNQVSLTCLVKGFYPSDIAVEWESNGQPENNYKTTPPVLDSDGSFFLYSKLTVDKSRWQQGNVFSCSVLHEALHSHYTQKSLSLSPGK
light chain (10E8v4 scFv, linker, CAP256V2LS LC): EVRLVESGGGLVKPGGSLRLSCSASGFDFDNAWMTWVRQPPGKGLEWVGRITGPGEGWSVDYAESVKGRFTISRDNTKNTLYLEMNNVRTEDTGYYFCARTGKYYDFWSGYPPGEEYFQDWGQGTLVIVSSGGGGSGGGGSGGGGSSELTQDPAVSVALKQTVTITCRGDSLRSHYASWYQKKPGQAPVLLFYGKNNRPSGIPDRFSGSASGNRASLTITGAQAEDEADYYCSSRDKSGSRLSVFGGGTKLTVGGSGGGGSGGGGSGGQSVLTQPPSVSAAPGQKVTISCSGNTSNIGNNFVSWYQQRPGRAPQLLIYETDKRPSGIPDRFSASKSGTSGTLAITGLQTGDEADYYCATWAASLSSARVFGTGTQVIVLGQPKVNPTVTLFPPSSEELQANKATLVCLISDFYPGAVTVAWKADSSPVKAGVETTTPSKQSNNKYAASSYLSLTPEQWKSHRSYSCQVTHEGSTVEKTVAPTECS
As to B2, the “% neutralization, single point” value with CAP256 wk34c80 was 99%; in test [1] it was 21%.

B3: CAP256V2LS-J3-2 (bispecific antibody)
heavy: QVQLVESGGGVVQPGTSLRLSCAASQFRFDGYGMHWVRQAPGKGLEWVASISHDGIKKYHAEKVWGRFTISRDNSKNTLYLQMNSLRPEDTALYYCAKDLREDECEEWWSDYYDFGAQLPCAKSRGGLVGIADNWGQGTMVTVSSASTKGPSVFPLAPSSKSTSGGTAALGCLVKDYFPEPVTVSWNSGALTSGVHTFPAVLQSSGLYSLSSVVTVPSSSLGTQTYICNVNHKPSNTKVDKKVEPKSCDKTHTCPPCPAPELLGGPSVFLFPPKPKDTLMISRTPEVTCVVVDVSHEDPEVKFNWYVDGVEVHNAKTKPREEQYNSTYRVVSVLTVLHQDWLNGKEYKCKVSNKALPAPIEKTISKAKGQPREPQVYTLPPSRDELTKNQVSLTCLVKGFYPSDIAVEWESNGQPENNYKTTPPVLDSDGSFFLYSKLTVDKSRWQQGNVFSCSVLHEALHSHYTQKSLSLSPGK
light: EVQLVESGGGLVQAGGFLRLSCELRGSIFNQYAMAWFRQAPGKEREFVAGMGAVPHYGEFVKGRFTISRDNAKSTVYLQMSSLKPEDTAIYFCARSKSTYISYNSNGYDYWGRGTQVTVSSGGSGGGGSGGQSVLTQPPSVSAAPGQKVTISCSGNTSNIGNNFVSWYQQRPGRAPQLLIYETDKRPSGIPDRFSASKSGTSGTLAITGLQTGDEADYYCATWAASLSSARVFGTGTQVIVLGQPKVNPTVTLFPPSSEELQANKATLVCLISDFYPGAVTVAWKADSSPVKAGVETTTPSKQSNNKYAASSYLSLTPEQWKSHRSYSCQVTHEGSTVEKTVAPTECS
Consider B3, for which the “% neutralization, single point” value (with CAP256 wk34c80; in test [1]) was 100% throughout. In addition, the “neutralization potency, fold better than that of J3” value is 3 fold in test [2] and about 10 fold in test [3].
